T1: human 5T4 (human, UniProt Q13641 32-355, limits assumed)
T1 construct: also called hu5T4
T1 sequence (looked up): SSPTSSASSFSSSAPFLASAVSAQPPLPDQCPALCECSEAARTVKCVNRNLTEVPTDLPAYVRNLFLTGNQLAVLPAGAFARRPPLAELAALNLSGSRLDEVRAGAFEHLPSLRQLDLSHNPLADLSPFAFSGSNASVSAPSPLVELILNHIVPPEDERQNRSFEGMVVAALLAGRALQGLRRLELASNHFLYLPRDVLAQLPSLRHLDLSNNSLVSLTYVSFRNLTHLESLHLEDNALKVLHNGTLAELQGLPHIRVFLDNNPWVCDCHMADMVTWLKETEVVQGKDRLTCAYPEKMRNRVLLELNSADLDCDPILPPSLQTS

T2: human OX40 protein (human, UniProt P43489 29-216, limits assumed)
T2 sequence (looked up): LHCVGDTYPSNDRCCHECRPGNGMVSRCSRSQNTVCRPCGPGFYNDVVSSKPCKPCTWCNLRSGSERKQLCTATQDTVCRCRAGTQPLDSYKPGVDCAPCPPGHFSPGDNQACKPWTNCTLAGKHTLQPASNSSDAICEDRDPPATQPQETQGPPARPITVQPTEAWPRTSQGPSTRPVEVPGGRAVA


Experiments:
[1] = target: T1, human 5T4; test: competitive ELISA on human 5T4
[2] = target: T3, human CD40 on the cell surface (human, UniProt P25942 21-277); test: cell-based or functional assay
[3] = target: T4, human 4-1BB protein (human, UniProt Q07011 24-186); test: ELISA, plate-coated protein
T4 construct: also called 4-IBB
Experimental: (§1) To evaluate the cross reactivity of chimeric anti-CD40 antibodies to other family members of TNF receptors, the ELISA binding towards human 4-1BB and human OX40 were performed.
(§2) Briefly, microtiter plates were coated with human 4-1BB protein or human OX40 protein at 1 μg/ml in PBS, 100 μl/well at 4° C. overnight, then blocked with 150 μl/well of 1% BSA. Ten-fold dilutions of 42p155, 2p834, 2p931, 42p655, 2p1294, 2p957, 42p495, 3p78, 2p415, 2p442, 2p551, 2p80 and 2p1130 antibodies starting from 100 nM were added to each well and incubated for 1 hour at RT. The plates were washed with PBS/Tween and then incubated with Anti-Human IgG (H&L) (GOAT) Antibody Peroxidase Conjugated for 30 mins at RT. After washing, the plates were developed with TMB substrate and analyzed by spectrophotometer at OD 450 nm.

[4] = target: T2, human OX40 protein; test: ELISA, plate-coated protein
Experimental: as §1, §2

[5] = target: T5, human CD40-His protein (human, UniProt P25942 21-193); test: ELISA, plate-coated human CD40-His
T5 construct: His-tagged recombinant protein; also called human CD40-his tag; recombinant CD40 protein
Experimental: (§3) To evaluate the binding activity of clones 42p155, 2p834, 2p931, 42p655, 2p1294, 2p957, 42p495, 3p78, 2p415, 2p442, 2p551, 2p80 and 2p1130, the chimeric monospecific antibody (mAb) from these clones were subjected to ELISA test, along with selicrelumab, the clinical benchmark anti-CD40 agonist antibodies.
as §2, with “human CD40-His” for “human 4-1BB protein or human OX40”, “at 1.0” for “at 1”, “150 µl/well” for “150 μl/well”

[6] = target: T6, cynomolgus CD40-His protein (cynomolgus, UniProt G7PG38 21-193); test: ELISA, plate-coated cynomolgus CD40-His
T6 construct: His-tagged recombinant protein; also called cyno CD40 antigen
Experimental: as §3
as §2, with “The binding affinity of these clones to cynomolgus CD40 was also tested. Microtiter plates” for “Briefly, microtiter plates”, “with cynomolgus CD40-His” for “with human 4-1BB protein or human OX40”, “at 1.0” for “at 1”, “100 µl/well” for “100 μl/well”, “150 µl/well” for “150 μl/well”, “nm. As shown in FIG. 1B and Table 2, all these clones bound to cynomolgus CD40 at high activity, showing good cross-reactivity between human and cynomolgus CD40 proteins.” for “nm.”

[7] = target: T5, human CD40-His protein; test: SPR Biacore T200, antibody captured on Protein A, CD40-His as analyte
Experimental: Bispecific antibodies with each of the 42p155, 2p834, 2p931, 42p655, 2p1294, 2p957, 42p495, 3p78, 2p415, 2p442, 2p551 and 2p1130 clones, as well as 2p80 monospecific antibody, were captured using Protein A chip. A serial dilution of human CD40-his tag protein was injected over captured antibody for 2 mins at a flow rate of 30 μl/min. The antigen was allowed to dissociate for 6 min. All the experiments were carried out on a Biacore T200. Data analysis was carried out using the Biacore T200 evaluation software.

[8] = target: T3, human CD40 on the cell surface; test: FACS, Jurkat cells overexpressing human CD40, PE anti-human IgG, MFI
Experimental: To evaluate their binding affinity to cell surface CD40, chimeric anti-CD40 monospecific antibodies were tested in Jurkat cell lines that overexpressed CD40 by FACS. A total number of 1×10⁵ Jurkat-CD40 cells in each well were incubated with 10-fold serially diluted antibodies starting from 100 nM for 30 minutes at 4° C. in FACS buffer. After wash by FACS buffer, PE conjugated-anti-human IgG antibody was added to each well and incubated at 4° C. for 30 minutes. After wash, MFI of PE was evaluated by MACSQuant Analyzer 16.

[9] = target: T3, human CD40 on the cell surface; test: FACS, human dendritic cells, MFI

T3 sequence (P25942 21-277): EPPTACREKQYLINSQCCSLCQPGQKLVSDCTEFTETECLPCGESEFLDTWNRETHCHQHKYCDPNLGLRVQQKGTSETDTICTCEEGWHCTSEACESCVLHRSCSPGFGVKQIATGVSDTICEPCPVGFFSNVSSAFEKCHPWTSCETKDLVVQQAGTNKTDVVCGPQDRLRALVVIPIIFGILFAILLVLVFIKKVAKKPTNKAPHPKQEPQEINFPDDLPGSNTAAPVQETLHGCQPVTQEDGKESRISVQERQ
T5 sequence (P25942 21-193 limits assumed): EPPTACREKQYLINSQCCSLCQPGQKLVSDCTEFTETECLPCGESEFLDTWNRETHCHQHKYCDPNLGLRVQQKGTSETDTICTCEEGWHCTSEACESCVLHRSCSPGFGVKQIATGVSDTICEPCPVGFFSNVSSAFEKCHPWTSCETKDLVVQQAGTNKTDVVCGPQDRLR

Row | Binder | binding result [1] | CD40 NF-κB luciferase reporter (Jurkat), RLU [2] | binding result [3] | binding result [4] | EC50 [5] | EC50 [6] | EC50 (read off the curve) [8] | further results
1 | 159D5 anti-5T4 mouse monoclonal antibody (antibody, V domains shown, Mouse monoclonal antibody from hybridoma) VH: DVQLVESGGGLVQPGGSRKLSCTASGFTFSNFGMHWVRQAPETGLEWVAYISSGSSTFYYADSVKGRFTISRDNPKNTLFLQMTSLRSEDTAMYFCARSPAYYRYGLDYWGQGTTLTVSS VL: DIVLTQSPASLAVSLGQRATISCRASQSVSSSTFSYMHWYQQKPGQPPKLLIKSSSNLESGVPARFSGSGSGTDFTLNIHPVEEEDTATYYCQHSWEIPYTFGGGTKLEIK | binds |  |  |  |  |  |  | 
2 | 2p80 chimeric monospecific antibody (antibody, V domains shown, Chimeric monospecific antibody; also called 2p80 cAb) VH: QLQLVESGGGLVQAGGSLRLSCAASGRIFSSYAMSWFRQAPGKEREFVATIGWIGENTYYADSVKGRFTISRDNAKNTLYLQMNSLKPEDTAVYYCAAGLPANRYYDYWGQGTQVTVSS |  | > 10 nM | no binding (tested: 100 nM (highest concentration)) | no binding (tested: 100 nM (highest concentration)) | 3.08 nM | 8.29 nM |  | Kd [7]: 213 nM; koff [7]: 0.000293 s⁻¹; kon [7]: 1380 M⁻¹ s⁻¹
3 | 393E9 anti-5T4 mouse monoclonal antibody (antibody, V domains shown, Mouse monoclonal antibody from hybridoma) VH: EVKLVESGGGLVQPGGSLSLSCAASGFTFTDYYMSWVRQPPGKALEWLGFIRNKGNGYTTENSASVKGRFTISRDNSQSILYLQMNALRAEDSATYYCARYRGNPHYAMDYWGQGTSVTVSS VL: DIVLTQFPASLAVSLGQRATISCRASESVEFYGTSFLQWYQQKPGQPPKLLIYGASNVESGVPARFSGSGSGTDFSLSIHPVEEDDIAMYFCQQSRKVPSTFGGGTKLEIK | binds |  |  |  |  |  |  | 
4 | 2p834 chimeric monospecific antibody (antibody, V domains shown, Chimeric monospecific antibody) VH: QSQLVESGGGLVQPGGSLRLSCAASGFAFRRYTMSWVRQAPGKGLEWVSTITHNGSITTYAESAQGRFTISRDNAKNTLYLQMNSLKPEDTAVYYCAQGGGSNYYRESWGQGTQVTVSS |  | > 10 nM | no binding (tested: 100 nM (highest concentration)) | no binding (tested: 100 nM (highest concentration)) | 0.76 nM | 0.2 nM | ~0.2 nM | 
5 | 3p78 chimeric monospecific antibody (antibody, V domains shown, Chimeric monospecific antibody) VH: PVQLVESGGGLVQPGGSLRLSCAASGFTFRNYAMSWVRQAPGKGLEWVSTITHNGAITTYAESAQGRFTISRDNAKNTLYLQMNSLKPEDTAVYYCAQGGGSNYYRESWGQGTQVTVSS |  | > 10 nM | no binding (tested: 100 nM (highest concentration)) | no binding (tested: 100 nM (highest concentration)) | 2.95 nM | 2.84 nM | ~2 nM | 
6 | 14G12 anti-5T4 mouse monoclonal antibody (antibody, V domains shown, Mouse monoclonal antibody from hybridoma) VH: EVQLQQSGPELVKPGASVKISCKASGYAFSSSWMNWVKQRPGKGLEWIGRIYREDGHTNYNGKFKGKATLTADKSSTTAYMQLTSLTSEDSAVYFCANGGAMDYWGQGTSVTVSS VL: DIQMTQSTSSLSASLGDRVTISCRASQDISNYLNWYQQKPDGTVKLLIYYTSRLHSGVPSRFSGSGSGTDYSLTISNLEQEDIATYFCQQDNTLPWTFGGGTKLEIK | binds |  |  |  |  |  |  | 
7 | b16 (42p155z2)-LALA humanized anti-5T4/CD40 bispecific antibody (bispecific antibody, human IgG1, kappa, L234A L235A) heavy 1: QVQLVQSGAEVKKPGASVKVSCKASGYAFSSSWMNWVRQAPGQGLEWMGRIYREDGHTNYNGKFKGRVTMTADKSITTAYMELSRLRSDDTAVYYCANGGAMDYWGQGTLVTVSSASTKGPSVFPLAPSSKSTSGGTAALGCLVKDYFPEPVTVSWNSGALTSGVHTFPAVLQSSGLYSLSSVVTVPSSSLGTQTYICNVNHKPSNTKVDKKVEPKSCDKTHTCPPCPAPEAAGGPSVFLFPPKPKDTLMISRTPEVTCVVVDVSHEDPEVKFNWYVDGVEVHNAKTKPREEQYNSTYRVVSVLTVLHQDWLNGKEYKCKVSNKALPAPIEKTISKAKGQPREPQVCTLPPSREEMTKNQVSLSCAVKGFYPSDIAVEWESNGQPENNYKTTPPVLDSDGSFFLVSKLTVDKSRWQQGNVFSCSVMHEALHNHYTQKSLSLSPGK light: not shown heavy 2: not shown |  |  |  |  |  |  |  | EC50 (read off the curve) [9]: ~0.5 nM
8 | 286B4 anti-5T4 mouse monoclonal antibody (antibody, V domains shown, Mouse monoclonal antibody from hybridoma) VH: DVQLHESGPGLVKPSQSLSLTCSVTGYSITNNYYWNWIRQFPGNNLEWMGYITYDGSNNYNPSLKNRISVTRDTSKNQFFLKLSSVTTEDTATYYCTRGGGQLRFDYWGQGTTLTVSS VL: SIVMTQTPKFLIVSAGDRVTITCKASQSVSNEVTWYQQKPGQSPKMLIYYASNRYTGVPDRFTGSGYGTDFTFTINTVQAEDLAIYFCQQDYSSPWTFGGGTKLEIK | binds |  |  |  |  |  |  | 
9 | 2p931 chimeric monospecific antibody (antibody, V domains shown, Chimeric monospecific antibody) VH: AVQLVESGGGLVQPGGSLRLSCAASGFSFRNYMMNWVRQAPGKGLECLSSITSAGDITSYTESVKGRFTISRDNAKNTLYLQMNSLKPEDTAVYYCAQGGCGNYYRESWGQGTQVTVSS |  | > 10 nM | no binding (tested: 100 nM (highest concentration)) | no binding (tested: 100 nM (highest concentration)) | 0.99 nM | 0.26 nM | ~0.2 nM | 

Source: patent publication US20240287208A1 (CONCEPT TO MEDICINE BIOTECH, published 2024)
